Data as given in the supplement of paper PMC9732359.
± gives the uncertainty stated by the source.

Experiment: protein stability index of a GFP-peptide fusion (yeast GPS) (PSI 1-4); higher = more stable; sorted into four equal gates, so the index is relative within each strain
Procedure, shortened: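 Tiled yeast protein peptides of 17 residues were each joined downstream of GFP, on plasmids that also express Cherry. The pooled library was maintained in yeast, and mid-log cultures in leucine-free medium were sorted into four equal gates on the GFP/Cherry ratio. Plasmids from every gate were amplified by PCR and sequenced on Illumina, with barcodes linking reads to strains. The protein stability index of a peptide is its gate-number-weighted read frequency summed over the gates.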

Sequence | protein stability index (doa10∆) | protein stability index (pdr5∆) | protein stability index (san1∆) | protein stability index (ubr1∆)
ESGSTPISISNAPTFNP [YAR002W/NUP60] | 2.25 ± 0.067 | 2.64 ± 0.061 | 1.98 ± 0.077 | 2.63 ± 0.058
ESKLRDDLERLKKIRAH [RPS18A] | 2.78 ± 0.13 | 1.98 ± 0.087 | 1.5 ± 0.16 | 3.3 ± 0.048
ESKLSLETLFNRWHSES [FAS2] | 3.26 ± 0.084 | 3.24 ± 0.1 | 3.1 ± 0.064 | 3.11 ± 0.065
ESNVNDSDMLTKSHNTV [NUT1] | 3.08 ± 0.1 | 3.25 ± 0.095 | 3.28 ± 0.086 | 3.43 ± 0.1
ESQLQMDRTSLRKQYSA [SMC3] | 2.47 ± 0.08 | 2.53 ± 0.096 | 2.75 ± 0.067 | 2.86 ± 0.094
ESRKAFFLGYMINRLLL [RPB2] | 1.17 ± 0.092 | 1.17 ± 0.11 | 1.12 ± 0.09 | 1.09 ± 0.072
ESTSSTEEVEALLQRLK [MTW1] |  |  |  | 3.23 ± 0.19
ESTTEATGNESQDATKV [YLR335W/NUP2] | 3.04 ± 0.071 | 3.23 ± 0.081 | 3.12 ± 0.11 | 3.21 ± 0.075
ESVLPAARYDYAVAEQC [QCR2] | 3.15 ± 0.11 | 3.25 ± 0.11 | 2.97 ± 0.11 | 1.98 ± 0.06
ESYKPSVQLPDMAKLKK [SWI3] | 2.94 ± 0.081 | 2.9 ± 0.081 | 2.81 ± 0.06 | 2.79 ± 0.068
ETGYMSRRLMKSLEDLS [RPO31] | 2.45 ± 0.12 | 3.13 ± 0.25 | 3.02 ± 0.15 | 
ETIKMKELDQELIIDPL [BRN1] | 2.98 ± 0.12 | 3.04 ± 0.15 | 2.6 ± 0.26 | 3.01 ± 0.064
ETKDIRKQIQLLKKIIF [SRB4] | 2.34 ± 0.052 | 2.43 ± 0.044 | 2.42 ± 0.045 | 2.39 ± 0.039
ETQFKLSRPYKALKTNI [CDC53] | 2.19 ± 0.045 | 2.39 ± 0.051 | 2.23 ± 0.05 | 2.45 ± 0.052
ETQYFWKLLNQLVLRGL [YJR042W/NUP85] | 2.18 ± 0.19 | 1.26 ± 0.074 | 1.26 ± 0.11 | 1.16 ± 0.1
ETSCDNYHPMNIDETSD [SMC4] | 3.02 ± 0.064 | 3.16 ± 0.052 | 3.15 ± 0.041 | 3.17 ± 0.051
ETSGVTTALLKDEEIEK [MED8] | 3.2 ± 0.097 | 3.05 ± 0.18 | 2.84 ± 0.17 | 3.63 ± 0.11
ETTTEEDSENPSDWQRN [ITC1] | 3.31 ± 0.17 | 3.31 ± 0.095 | 3.06 ± 0.11 | 3.38 ± 0.083
EVALFSQKAKLMTFNAE [YLR335W/NUP2] | 2.27 ± 0.08 | 1.47 ± 0.057 | 1.5 ± 0.1 | 1.4 ± 0.085
EVAQLGSLACDTADEAK [RPB4] | 3.49 ± 0.15 | 3.28 ± 0.13 | 3.28 ± 0.17 | 2.73 ± 0.11
EVDYEDKDNPVDSRNET [SRB4] | 3.46 ± 0.19 | 2.99 ± 0.17 | 3.47 ± 0.12 | 3.33 ± 0.25
EVEVSTRDLFDLEKDRA [RPO31] | 3.07 ± 0.052 | 3.37 ± 0.061 | 3.28 ± 0.042 | 3.23 ± 0.048
EVIFSFEGTPPFSLTYV [YMR129W/POM152] | 2.09 ± 0.051 | 2.21 ± 0.063 | 2.11 ± 0.083 | 2.25 ± 0.047
EVKEQLGILKKKRFDEF [SMC4] |  | 2.68 ± 0.22 | 2.35 ± 0.23 | 3.03 ± 0.12
EVQCTSTPYLEILVEES [PCI8] | 2.3 ± 0.067 | 2.96 ± 0.18 | 2.33 ± 0.14 | 2.64 ± 0.083
EVSTSTSMTGDANLLEE [SWI3] | 3.09 ± 0.13 | 3.23 ± 0.11 | 3.24 ± 0.042 | 3.3 ± 0.041

Sequence | protein stability index (doa10∆) | protein stability index (pdr5∆) | protein stability index (san1∆) | protein stability index (ubr1∆)
EVTEEQAEATEWAEENA [RPS0A] | 3.48 ± 0.13 | 3.51 ± 0.1 | 2.99 ± 0.13 | 3.62 ± 0.095
EVVEAVTVVDTPPVVVV [RPL3] | 1.36 ± 0.05 | 1.67 ± 0.05 | 1.48 ± 0.095 | 1.47 ± 0.036
EVYEALKEVLYNDSATS [RPN2] | 3.34 ± 0.18 | 3.45 ± 0.15 |  | 3.46 ± 0.08
EVYMRYRNFMVNSYRLN [SWI3] | 2.19 ± 0.062 | 1.62 ± 0.06 | 1.46 ± 0.099 | 1.44 ± 0.097
EVYTKTIEVLDEVITEG [POP7] | 2.84 ± 0.069 | 3.12 ± 0.064 | 3.15 ± 0.053 | 3.03 ± 0.067
EWVKLHRLLQRALFRQL [RMP1] | 1.47 ± 0.25 | 1.58 ± 0.21 | 2.86 ± 0.14 | 2.16 ± 0.14
EYEKRNHGGSLGKYDLT [SRP68] | 2.81 ± 0.18 | 2.56 ± 0.15 | 2.15 ± 0.14 | 1.3 ± 0.14
EYIFEAHEIIKREEKAM [CDC53] | 1.77 ± 0.039 | 2.39 ± 0.088 | 2.54 ± 0.086 | 2.28 ± 0.043
EYLFKPQLISDKFSPED [ARP7] | 2.38 ± 0.053 | 2.46 ± 0.042 | 2.32 ± 0.056 | 2.17 ± 0.041
EYLKRVSVPVSGQKTNR [SIR3] | 2.54 ± 0.1 | 2.52 ± 0.087 | 3.06 ± 0.13 | 2.83 ± 0.16
EYMKRHPTTIESLREIP [SEC65] | 3.25 ± 0.082 | 3.21 ± 0.068 | 3.17 ± 0.059 | 3.06 ± 0.06
EYRDLYTNSVELRSLSK [YMR129W/POM152] | 3.18 ± 0.082 | 3.27 ± 0.072 | 3.24 ± 0.065 | 2.79 ± 0.29
EYSDNFPVSLSQPSKKS [SIR4] | 3.08 ± 0.045 | 3.05 ± 0.046 | 2.98 ± 0.04 | 3.1 ± 0.031
FAEENITHKLTKNDAGS [BRR2] | 3.26 ± 0.084 | 3.22 ± 0.07 | 2.88 ± 0.055 | 3.46 ± 0.1
FAGEAGDTVQFAEYIQA [PRE1] | 1.72 ± 0.089 | 1.74 ± 0.094 | 1.75 ± 0.13 | 2.09 ± 0.054
FAIRDDRDHINPDDLMK [RPT4] | 2.65 ± 0.15 | 2.99 ± 0.14 | 3.51 ± 0.093 | 3.33 ± 0.11
FAQENSELAVATTSVMM [SRB6] | 2.82 ± 0.13 | 3.13 ± 0.14 | 3.13 ± 0.07 | 3.33 ± 0.11
FAQGKRRYDRKQSGFGG [RPL42A] | 3.6 ± 0.25 | 3.57 ± 0.28 | 3.06 ± 0.29 | 3.34 ± 0.061
FASNKKINDESSIDKKS [YML103C/NUP188] | 2.5 ± 0.066 | 2.92 ± 0.073 | 2.64 ± 0.068 | 3.14 ± 0.067
FATTKAECISLICSIGL [ECM29] | 1.5 ± 0.059 | 1.97 ± 0.056 | 1.65 ± 0.13 | 1.77 ± 0.05
FAVIYLCDIDEVSDFDE [DIB1] | 1.46 ± 0.13 | 2.16 ± 0.1 | 1.51 ± 0.17 | 1.64 ± 0.14
FDEFMNVVIDEAVEIPV [SME1] | 2.86 ± 0.056 | 3.19 ± 0.066 | 2.94 ± 0.071 | 2.9 ± 0.045
FDIYNRDRKLITDKGTV [YJL039C/NUP192] | 3.18 ± 0.13 | 2.53 ± 0.093 | 2.86 ± 0.11 | 2.96 ± 0.083
FDPFQAVSRSMTDIWNT [ECM29] | 2.81 ± 0.087 | 2.73 ± 0.07 | 2.85 ± 0.062 | 2.75 ± 0.071
FDQSTNVKVIMATNRAD [RPT3] | 2.12 ± 0.054 | 2.15 ± 0.053 | 1.52 ± 0.074 | 2.02 ± 0.051
FDRHCNMVLENVKELWT [SMD2] | 2.37 ± 0.081 | 2.38 ± 0.088 | 1.84 ± 0.1 | 2.03 ± 0.1
